Assay results published in US20220251236A1 (Boehringer Ingelheim, published 2022).

How the values were obtained:
[1] = target: T1, Cyno DLL3-His (cynomolgus monkey, UniProt Q9NYJ7 27-492 (human entry)); experiment: SPR; ratio of the KD values for human and cyno DLL3
T1 construct: also called cy DLL3; recombinant cyno DLL3-ECD
T1 chain: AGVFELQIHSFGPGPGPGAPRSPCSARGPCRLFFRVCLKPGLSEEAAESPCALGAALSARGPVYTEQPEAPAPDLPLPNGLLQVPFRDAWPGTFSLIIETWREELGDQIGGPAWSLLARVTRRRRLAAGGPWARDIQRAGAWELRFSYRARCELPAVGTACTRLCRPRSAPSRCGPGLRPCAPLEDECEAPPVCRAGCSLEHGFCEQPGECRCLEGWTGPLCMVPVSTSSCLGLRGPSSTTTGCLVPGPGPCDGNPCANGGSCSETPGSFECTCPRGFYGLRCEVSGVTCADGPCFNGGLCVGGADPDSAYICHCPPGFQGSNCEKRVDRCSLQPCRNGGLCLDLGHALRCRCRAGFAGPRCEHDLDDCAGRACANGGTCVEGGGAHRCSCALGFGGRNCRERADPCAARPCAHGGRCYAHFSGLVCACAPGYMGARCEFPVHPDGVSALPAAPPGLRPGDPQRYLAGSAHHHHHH
Description: (§1) The binding affinity of purified DLL3/CD3 bispecific constructs for recombinant human and cyno DLL3-ECD and Fc-fusion proteins of human and cyno CD3 εγ subunits was determined by Surface Plasmon Resonance (SPR), using a ProteOn XPR36 instrument (Bio-Rad). The running buffer and all dilutions (except where stated) were done in PBS-T-EDTA. The GLM sensor chip (Bio-Rad) was normalized and pre-conditioned as per the manufacturer's recommendations. The sensor chip was activated with equal mixture of EDC/s-NHS in the horizontal direction for 300 sec at a flow rate of 30 ul/min and immobilized with protein A/G (20 ug/ml in 10 mM acetate pH 4.5) in the horizontal direction for 300 sec at a flowrate of 30 ul/min resulting in ˜5000 RU of protein A/G on the surface. The sensor chip was deactivated with 1M ethanolamine HCl in the horizontal direction for 300 sec at a flowrate of 30 μl/min.
(§2) For binding kinetic determination to DLL3, bispecific molecules were captured individually on the protein A/G surface vertically for 250 sec at a flowrate of 25 μl/min. The baseline was stabilized by injecting PBS-T-EDTA for 60 sec at a flowrate of 40 μl/min horizontally. The analyte (hu DLL3 or cy DLL3) was injected horizontally over the captured antibody for 600 sec at a flowrate of 40 μl/min and a dissociation for 2700 sec.
(§3) The inter spot (interactions with sensor surface) and blank (PBS-T-EDTA) were subtracted from the raw data.

[2] = target: T2, Human CD3 E+G HuFc-6xHis (human); experiment: SPR (ProteOn XPR36), HuCD3E_HuCD3G-Fc amine-coupled, bispecific as analyte, Example 4B
T2 construct: also called hu CD3εγ-Fc
Procedure, shortened: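 SPR kinetics with the bispecific constructs flowed as analyte over a directly amine-coupled (pH 4.5 acetate) human CD3εγ-Fc surface. Association runs 600 s and dissociation 1800 s, at 30 μl/min in PBS-T-EDTA.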

[3] = target: T1, Cyno DLL3-His; experiment: SPR (ProteOn XPR36), bispecific captured on protein A/G, DLL3 as analyte, Example 4A
Description: as §1, §2, §3

[4] = target: T3, Human DLL3-His (human, UniProt Q9NYJ7 27-492); experiment: as above
T3 construct: also called huDLL3-His; hu DLL3
T3 sequence: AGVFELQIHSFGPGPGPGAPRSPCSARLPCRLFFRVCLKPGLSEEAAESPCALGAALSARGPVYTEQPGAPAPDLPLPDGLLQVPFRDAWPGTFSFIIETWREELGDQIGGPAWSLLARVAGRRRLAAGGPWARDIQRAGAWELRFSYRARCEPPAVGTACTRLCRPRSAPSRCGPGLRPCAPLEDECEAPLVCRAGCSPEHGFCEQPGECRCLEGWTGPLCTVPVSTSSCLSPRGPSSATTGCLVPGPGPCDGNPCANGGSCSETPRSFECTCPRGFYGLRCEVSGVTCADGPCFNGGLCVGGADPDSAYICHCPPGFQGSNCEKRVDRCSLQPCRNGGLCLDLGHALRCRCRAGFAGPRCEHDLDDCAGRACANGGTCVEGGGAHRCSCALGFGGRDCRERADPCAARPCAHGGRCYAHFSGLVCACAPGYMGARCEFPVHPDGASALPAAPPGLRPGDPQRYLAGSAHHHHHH
Description: as §1, §2, §3

[5] = target: T3, Human DLL3-His; experiment: SPR (ProteOn XPR36), bispecific captured on protein A/G, hu DLL3 as analyte, Example 4B
Procedure, shortened: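 Bispecific constructs captured on protein A/G for 200 s at 30 μl/min, baseline stabilized with PBS-T-EDTA. Human DLL3 analyte injected 300 s at 30 μl/min; dissociation followed for 1800 s.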

[6] = target: T2, Human CD3 E+G HuFc-6xHis; experiment: SPR (ProteOn XPR36), CD3εγ-Fc amine-coupled, bispecific as analyte, equilibrium fit, Example 4A
Description: as §1
For binding kinetic determination to CD3, hu CD3εγ-Fc and cy CD3εγ-Fc (dissolved in pH 4.5 acetate) was immobilized directly onto the sensor surface through amine coupling for 140 sec at a flowrate of 30 μl/min vertically. The baseline was stabilized by injecting PBS-T-EDTA for 60 sec at a flowrate of 40 μl/min horizontally. The analyte (the bispecific molecule) was injected horizontally over the captured CD3εγ-Fc construct for 600 sec at a flowrate of 40 μl/min and a dissociation for 600 sec.
as §3

[7] = target: T4, trypsin inhibitor from glycine max soybean (Glycine max (soybean)); experiment: SPR (Biacore T200), trypsin inhibitor on CM5 chip, sample at 1 µM
T4 construct: also called Tryp
Description: To prepare the surface for the non-specific binding experiment, chicken egg white lysozyme and trypsin inhibitor from glycine max soybean were coupled manually to a series S CM5 chip with the surface density of 3000-5000 RU using the amine coupling kit according to the manufacture instructions.

T2 sequence (chain, as listed by the source limits assumed): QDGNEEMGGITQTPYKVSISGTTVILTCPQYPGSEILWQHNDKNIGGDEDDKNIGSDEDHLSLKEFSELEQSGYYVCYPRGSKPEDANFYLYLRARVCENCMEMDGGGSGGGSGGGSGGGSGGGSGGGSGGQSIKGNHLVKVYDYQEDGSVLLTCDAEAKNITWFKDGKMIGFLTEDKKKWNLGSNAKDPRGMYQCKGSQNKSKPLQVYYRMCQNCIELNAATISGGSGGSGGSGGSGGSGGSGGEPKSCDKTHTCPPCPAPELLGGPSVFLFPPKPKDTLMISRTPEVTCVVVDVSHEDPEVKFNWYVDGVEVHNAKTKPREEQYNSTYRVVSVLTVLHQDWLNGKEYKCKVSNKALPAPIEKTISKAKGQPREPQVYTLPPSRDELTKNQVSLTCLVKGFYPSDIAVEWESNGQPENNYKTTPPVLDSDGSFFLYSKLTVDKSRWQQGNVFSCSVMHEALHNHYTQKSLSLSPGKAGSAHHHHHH
T4 sequence (P01070 25-205): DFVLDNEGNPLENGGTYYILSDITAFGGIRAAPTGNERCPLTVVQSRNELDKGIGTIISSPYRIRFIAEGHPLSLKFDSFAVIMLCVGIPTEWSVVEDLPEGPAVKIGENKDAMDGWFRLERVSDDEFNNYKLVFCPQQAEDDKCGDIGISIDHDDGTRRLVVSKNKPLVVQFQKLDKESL

B1: DLL3#3/CD3#3 (bispecific antibody, human IgG1, kappa, lambda, L234A L235A)
chain 1: DIQMTQSPSAMSASVGDRVTITCRASQGISNYLVWFQQKPGKAPKRLIYAVSSLYSGVPSRFSGSGSGTEFTLTISSLQPEDFATYYCLQHDSYPYTFGQGTKLEIKRTVAAPSVFIFPPSDEQLKSGTASVVCLLNNFYPREAKVQWKVDNALQSGNSQESVTEQDSKDSTYSLSSTLTLSKADYEKHKVYACEVTHQGLSSPVTKSFNRGECGGGGSEGKSSGSGSESKSTEGKSSGSGSESKSTGGGGSQVQLVQSGAEVKKPGASVKVSCKASGYTFTSYYVHWVRQAPGQGLEWMVIINPGGGTTSYAQKFLGRVTMTRDTSTNTVYMELKSLRSEDTAVYYCARGEAVTGNYFYYGMDVWGQGTTVTVSSASTKGPSVFPLAPSSKSTSGGTAALGCLVKDYFPEPVTVSWNSGALTSGVHTFPAVLQSSGLYSLSSVVTVPSSSLGTQTYICNVNHKPSNTKVDKRVEPKSCDKTHTCPPCPAPEAAGGPSVFLFPPKPKDTLMISRTPEVTCVVVDVSHEDPEVKFNWYVDGVEVHNAKTKPREEQYNSTYRVVSVLTVLHQDWLNGKEYKCKVSNKALPAPIEKTISKAKGQPREPQVYTLPPSREEMTKNQVSLWCLVKGFYPSDIAVEWESNGQPENNYKTTPPVLDSDGSFFLYSKLTVDKSRWQQGNVFSCSVMHEALHNHYTQKSLSLSPG
chain 2: EAVVTQEPSLTVSPGGTVTLTCRSSTGAVTTSNYANWVQEKPGQLPRGLIGGTNKRAPWVPARFSGSLLGGKAALTLSGAQPEDEAEYFCALWYSNLWVFGGGTKLTVLGQPKAAPSVTLFPPSSEELQANKATLVCLISDFYPGAVKVAWKADGSPVNTGVETTTPSKQSNNKYAASSYLSLTPEQWKSHRSYSCQVTHEGSTVEKTVAPAECSGGGGSEGKSSGSGSESKSTEGKSSGSGSESKSTGGGGSEVQLVESGGGLVQPGGSLKLSCAASGFTFNTYAMNWVRQAPGKGLEWVARIRSKYANYATYYADSVKDRFTISRDDSKNTAYLQMNNLKTEDTAVYYCVRHGNFGNSYVSWFAYWGQGTLVTVSAASTKGPSVFPLAPSSKSTSGGTAALGCLVKDYFPEPVTVSWNSGALTSGVHTFPAVLQSSGLYSLSSVVTVPSSSLGTQTYICNVNHKPSNTKVDKRVEPKSCDKTHTCPPCPAPEAAGGPSVFLFPPKPKDTLMISRTPEVTCVVVDVSHEDPEVKFNWYVDGVEVHNAKTKPREEQYNSTYRVVSVLTVLHQDWLNGKEYKCKVSNKALPAPIEKTISKAKGQPREPQVYTLPPSREEMTKNQVSLSCAVKGFYPSDIAVEWESNGQPENNYKTTPPVLDSDGSFFLVSKLTVDKSRWQQGNVFSCSVMHEALHNRFTQKSLSLSPG
notes: Heterodimer of one DLL3 chain and one CD3 chain (scFab-Fc, knob-in-hole)
[1]
  Affinity gap KD hu/cyno DLL3: 1
[2]
  Kd: 4 nM
[3]
  Kd: < 0.01 nM
[4]
  Kd: < 0.01 nM
[5]
  Kd: 0.116 nM
[6]
  Kd: 68 nM
[7]
  Non-specific binding (RU): 28 RU
